What was measured:
[1] = molecular target: ATRX full length (UniProt P46100); experiment: filter
[2] = molecular target: ATRX full length (UniProt P46100); experiment: FP

Chain of UniProt P46100 (P46100 whole entry): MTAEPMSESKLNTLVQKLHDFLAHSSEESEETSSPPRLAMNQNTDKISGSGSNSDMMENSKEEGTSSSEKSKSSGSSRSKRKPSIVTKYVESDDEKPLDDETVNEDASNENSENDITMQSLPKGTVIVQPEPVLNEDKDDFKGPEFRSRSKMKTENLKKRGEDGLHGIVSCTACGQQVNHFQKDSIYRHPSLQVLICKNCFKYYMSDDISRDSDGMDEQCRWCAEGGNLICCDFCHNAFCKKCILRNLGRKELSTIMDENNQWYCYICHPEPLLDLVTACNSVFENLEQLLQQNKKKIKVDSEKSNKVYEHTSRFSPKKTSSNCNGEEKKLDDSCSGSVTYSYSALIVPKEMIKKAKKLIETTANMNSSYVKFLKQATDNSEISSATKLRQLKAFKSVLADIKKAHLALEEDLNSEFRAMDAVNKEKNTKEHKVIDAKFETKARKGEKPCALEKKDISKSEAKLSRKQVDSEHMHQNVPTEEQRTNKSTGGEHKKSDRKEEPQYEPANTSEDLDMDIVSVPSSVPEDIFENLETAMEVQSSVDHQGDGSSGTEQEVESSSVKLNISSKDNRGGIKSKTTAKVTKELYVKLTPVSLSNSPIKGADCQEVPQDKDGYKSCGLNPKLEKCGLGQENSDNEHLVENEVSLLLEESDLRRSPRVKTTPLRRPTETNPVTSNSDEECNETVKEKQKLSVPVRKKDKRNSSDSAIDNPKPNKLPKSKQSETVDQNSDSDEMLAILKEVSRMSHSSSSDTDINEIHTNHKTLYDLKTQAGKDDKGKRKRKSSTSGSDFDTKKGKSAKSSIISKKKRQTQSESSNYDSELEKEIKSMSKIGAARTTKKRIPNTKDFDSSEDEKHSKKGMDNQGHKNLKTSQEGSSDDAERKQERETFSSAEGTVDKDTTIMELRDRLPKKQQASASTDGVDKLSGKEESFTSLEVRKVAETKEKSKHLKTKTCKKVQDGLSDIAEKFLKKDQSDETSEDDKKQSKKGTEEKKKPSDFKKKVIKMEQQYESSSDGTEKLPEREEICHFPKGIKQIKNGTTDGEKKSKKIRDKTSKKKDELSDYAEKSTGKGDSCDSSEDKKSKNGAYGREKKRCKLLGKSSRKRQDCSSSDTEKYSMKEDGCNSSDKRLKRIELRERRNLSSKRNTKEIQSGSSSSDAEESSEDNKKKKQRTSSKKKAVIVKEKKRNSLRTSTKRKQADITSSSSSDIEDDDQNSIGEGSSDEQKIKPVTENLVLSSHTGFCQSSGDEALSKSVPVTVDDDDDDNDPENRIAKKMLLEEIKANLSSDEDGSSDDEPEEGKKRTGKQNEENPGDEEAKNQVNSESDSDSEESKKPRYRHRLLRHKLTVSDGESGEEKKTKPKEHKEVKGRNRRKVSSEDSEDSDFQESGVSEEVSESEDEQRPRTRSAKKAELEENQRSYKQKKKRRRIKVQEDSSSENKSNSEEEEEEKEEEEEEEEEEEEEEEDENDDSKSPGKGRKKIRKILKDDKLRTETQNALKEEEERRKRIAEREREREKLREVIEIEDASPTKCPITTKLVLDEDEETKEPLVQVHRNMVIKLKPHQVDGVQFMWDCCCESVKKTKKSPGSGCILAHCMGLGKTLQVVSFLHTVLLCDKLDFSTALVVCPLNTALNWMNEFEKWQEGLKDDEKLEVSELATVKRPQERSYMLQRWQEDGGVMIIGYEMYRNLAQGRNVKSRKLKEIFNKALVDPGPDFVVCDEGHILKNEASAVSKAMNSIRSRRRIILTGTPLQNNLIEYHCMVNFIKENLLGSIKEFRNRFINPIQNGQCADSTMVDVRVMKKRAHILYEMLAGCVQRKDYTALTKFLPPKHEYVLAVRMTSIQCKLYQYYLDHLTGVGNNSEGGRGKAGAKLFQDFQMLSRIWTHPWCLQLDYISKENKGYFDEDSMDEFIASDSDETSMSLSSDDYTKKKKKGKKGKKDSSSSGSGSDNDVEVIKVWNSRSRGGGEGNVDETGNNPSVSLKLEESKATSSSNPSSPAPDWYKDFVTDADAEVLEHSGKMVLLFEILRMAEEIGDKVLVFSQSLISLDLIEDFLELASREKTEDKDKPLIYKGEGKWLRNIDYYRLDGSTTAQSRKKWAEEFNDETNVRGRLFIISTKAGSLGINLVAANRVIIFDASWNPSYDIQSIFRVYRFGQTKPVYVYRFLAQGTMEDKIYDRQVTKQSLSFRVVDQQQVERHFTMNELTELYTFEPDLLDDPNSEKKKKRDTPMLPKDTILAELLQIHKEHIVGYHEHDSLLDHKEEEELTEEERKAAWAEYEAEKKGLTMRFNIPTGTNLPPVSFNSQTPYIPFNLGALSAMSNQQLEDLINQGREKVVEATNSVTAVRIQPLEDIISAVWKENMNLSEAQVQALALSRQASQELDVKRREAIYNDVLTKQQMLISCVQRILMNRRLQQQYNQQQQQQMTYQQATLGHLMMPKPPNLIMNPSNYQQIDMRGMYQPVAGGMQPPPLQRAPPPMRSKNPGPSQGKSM

Question: For MBP dsDNA, which Kd ([1]; Kd>>200 nM) is on record?
Answer: The Kd was greater than 200 nM.

Question: How did the Kd ([1]; Kd>>200 nM) turn out when MBP mRNA first 300 nt was run?
Answer: The Kd was greater than 200 nM.

Question: With Repeat A III-IV RNA as the substance, how does the Kd ([1]; +/-3.35, double-filter binding) read?
Answer: The Kd was 17.9 nM.

Question: Which Kd ([1]; Kd>>200 nM) does the source give for Hotair dsDNA here?
Answer: Its Kd is greater than 200 nM.

Question: How did the Kd ([1]; +/-0.89, double-filter binding) turn out when Repeat A I-II RNA was run?
Answer: The Kd was 9.96 nM.

Question: Xist Repeat A I-IV RNA was tested. Which Kd [2] did it give?
Answer: The Kd was 5.41 nM.

Question: For Repeat A dsDNA, which Kd ([1]; unit not printed with value, nM by context) is on record?
Answer: The Kd was 15.7 nM.

Question: Which Kd ([1]; could not bind well, Kd>>200 nM) does the source give for Repeat A ssDNA here?
Answer: Its Kd is greater than 200 nM.

Question: Which Kd ([1]; Kd>>200 nM) does the source give for P4-P6 ribozyme RNA here?
Answer: Its Kd is greater than 200 nM.

Reference: patent US20170335317
